According to the supplement of paper PMC10126150:
± gives the standard deviation of the averaged measurements.

tested on: ATP; test: switch fluorescence ratio, 500 uM ATP over buffer (Cy3 cluster intensity, sum of 5 cycles each) (fold (ratio)); higher = stronger signal-on switching upon ATP binding; sequences stand for … in TCGTCGGCAGCGTCAGATGTGTATAAGAGACAGTTTTTTTTTTTTTTTTTTTTTTTTT…TC; conditions: aptamer strand: ATP DNA aptamer (quencher-CACCTGGGGGAGTATTGCGGAGGAAGG + anchor), 100 nM annealed; ATP concentration: 500 uM
In short: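 Per cluster, summed Cy3 intensity from the target cycles was divided by that from the buffer cycles to give the fluorescence ratio, then averaged per switch-domain sequence. Clusters outside 100-1000 RFU were excluded. The Cy3-labelled switching-strand clusters, on a modified Illumina MiSeq flow-cell, were annealed to 100 nM quencher-labelled ATP aptamer and imaged in selection buffer, then after 15 min with 500 uM ATP at 22 °C, for five cycles with NaOH stripping and re-annealing between them.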
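Also: ATP exposure 15 min at 22 °C before imaging.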

Sequence | switch fluorescence ratio
TGTGGGGCAA | 1.05 ± 0.019
TGTGGGGGAT | 1.01 ± 0.06
TGTGGGGTAG | 1.01 ± 0.029
TGTGGGTGAG | 1 ± 0.02
TGTGGTAGAA | 0.989 ± 0.023
TGTGGTATTA | 0.976 ± 0.036
TGTGGTATTT | 0.972 ± 0.027
TGTGGTGCGA | 0.995 ± 0.029
TGTGGTGGGG | 0.996 ± 0.042
TGTGGTGGGT | 1.042 ± 0.0097
TGTGTAAAGT | 1.82 ± 1.2
TGTGTAATTG | 1.01 ± 0.032
TGTGTATTGT | 0.985 ± 0.031
TGTGTCAGCT | 0.9981 ± 0.0041
TGTGTCATGT | 0.989 ± 0.013
TGTGTCTGTT | 0.9933 ± 0.0025
TGTGTCTTTT | 1.01 ± 0.047
TGTGTGAGT | 0.964 ± 0.013
TGTGTGAGTG | 0.981 ± 0.054
TGTGTGCCGG | 0.9332 ± 0.0057
TGTGTGTTTA | 1.01 ± 0.012
TGTGTGTTTG | 0.989 ± 0.015
TGTGTTATAC | 1.05 ± 0.043
TGTGTTATGT | 1.03 ± 0.038
TGTGTTATTT | 0.999 ± 0.024

Sequence | switch fluorescence ratio
TGTGTTCACA | 0.98 ± 0.0058
TGTGTTCACT | 1.01 ± 0.036
TGTGTTCCGA | 0.9975 ± 0.0083
TGTGTTTAGT | 1.01 ± 0.013
TGTGTTTATA | 1.013 ± 0.0095
TGTGTTTGAG | 0.972 ± 0.051
TGTTAAACGG | 1.01 ± 0.039
TGTTAATGGG | 0.997 ± 0.016
TGTTACTCCT | 1.09 ± 0.026
TGTTAGGGTT | 1.01 ± 0.04
TGTTAGTCTA | 0.9884 ± 0.0052
TGTTATAAAT | 0.999 ± 0.032
TGTTATACGT | 1.02 ± 0.019
TGTTATGAGT | 0.99 ± 0.036
TGTTATGGGT | 1.04 ± 0.039
TGTTATGTTT | 0.99 ± 0.032
TGTTATTGAA | 0.992 ± 0.046
TGTTATTGGT | 1.01 ± 0.015
TGTTATTTGT | 0.975 ± 0.048
TGTTCAGACG | 1.03 ± 0.053
TGTTCCGTAT | 0.993 ± 0.044
TGTTCGACCG | 1.012 ± 0.01
TGTTCGGGAT | 0.977 ± 0.01
TGTTCTTAGT | 1 ± 0.048
TGTTGAAAAG | 0.979 ± 0.01

Sequence | switch fluorescence ratio
TGTTGAAAAT | 1.02 ± 0.048
TGTTGAACGT | 1.004 ± 0.0086
TGTTGAGTTG | 0.9749 ± 0.0031
TGTTGATACT | 1.06 ± 0.12
TGTTGCAGAG | 1.03 ± 0.049
TGTTGCGAAA | 1 ± 0.025
TGTTGCGCCG | 0.929 ± 0.081
TGTTGCGTGG | 0.992 ± 0.012
TGTTGGGAGG | 0.969 ± 0.017
TGTTGGGGAC | 1.023 ± 0.0065
TGTTGGGTTT | 0.998 ± 0.031
TGTTGGTAAT | 0.996 ± 0.012
TGTTGGTATA | 1.01 ± 0.012
TGTTGGTGGG | 0.989 ± 0.024
TGTTGTGATT | 0.994 ± 0.023
TGTTGTGCAC | 1.02 ± 0.023
TGTTGTTTCG | 0.989 ± 0.025
TGTTGTTTGT | 1.02 ± 0.026
TGTTTAAAGG | 1.02 ± 0.051
TGTTTAACAT | 0.981 ± 0.035
TGTTTACTTT | 0.98 ± 0.014
TGTTTAGCTT | 1.024 ± 0.0066
TGTTTATTAG | 0.986 ± 0.01
TGTTTATTCC | 1.11 ± 0.087
TGTTTCAACT | 0.9843 ± 0.0045

Sequence | switch fluorescence ratio
TGTTTCCATG | 0.988 ± 0.016
TGTTTCCGTG | 0.9766 ± 0.0027
TGTTTCTCTG | 1.01 ± 0.023
TGTTTGAAAA | 0.953 ± 0.027
TGTTTGAAGA | 1 ± 0.028
TGTTTGCCAG | 1 ± 0.05
TGTTTGGATG | 0.973 ± 0.029
TGTTTGGATT | 0.988 ± 0.013
TGTTTGGCGG | 0.966 ± 0.02
TGTTTGGCTT | 0.9619 ± 0.0079
TGTTTGGTAA | 0.981 ± 0.024
TGTTTGTAAA | 1.01 ± 0.029
TGTTTGTAGG | 0.97 ± 0.043
TGTTTGTCA | 0.989 ± 0.022
TGTTTGTGAG | 1 ± 0.045
TGTTTGTGCG | 0.9633 ± 0.0057
TGTTTGTTT | 1.03 ± 0.025
TGTTTTAAAA | 0.99 ± 0.027
TGTTTTAGCT | 0.973 ± 0.021
TGTTTTAGG | 0.998 ± 0.048
TGTTTTATCA | 0.9742 ± 0.0037
TGTTTTCGCA | 1 ± 0.021
TGTTTTGAGA | 1 ± 0.023
TGTTTTGATC | 0.977 ± 0.029
TGTTTTGGCG | 0.959 ± 0.018
